Consider 1 substance from IntAct's records for PubMed 24855951.

This assay addresses dtx_drome dx (UniProt Q23985).

Chain of dtx_drome dx (Q23985 whole entry): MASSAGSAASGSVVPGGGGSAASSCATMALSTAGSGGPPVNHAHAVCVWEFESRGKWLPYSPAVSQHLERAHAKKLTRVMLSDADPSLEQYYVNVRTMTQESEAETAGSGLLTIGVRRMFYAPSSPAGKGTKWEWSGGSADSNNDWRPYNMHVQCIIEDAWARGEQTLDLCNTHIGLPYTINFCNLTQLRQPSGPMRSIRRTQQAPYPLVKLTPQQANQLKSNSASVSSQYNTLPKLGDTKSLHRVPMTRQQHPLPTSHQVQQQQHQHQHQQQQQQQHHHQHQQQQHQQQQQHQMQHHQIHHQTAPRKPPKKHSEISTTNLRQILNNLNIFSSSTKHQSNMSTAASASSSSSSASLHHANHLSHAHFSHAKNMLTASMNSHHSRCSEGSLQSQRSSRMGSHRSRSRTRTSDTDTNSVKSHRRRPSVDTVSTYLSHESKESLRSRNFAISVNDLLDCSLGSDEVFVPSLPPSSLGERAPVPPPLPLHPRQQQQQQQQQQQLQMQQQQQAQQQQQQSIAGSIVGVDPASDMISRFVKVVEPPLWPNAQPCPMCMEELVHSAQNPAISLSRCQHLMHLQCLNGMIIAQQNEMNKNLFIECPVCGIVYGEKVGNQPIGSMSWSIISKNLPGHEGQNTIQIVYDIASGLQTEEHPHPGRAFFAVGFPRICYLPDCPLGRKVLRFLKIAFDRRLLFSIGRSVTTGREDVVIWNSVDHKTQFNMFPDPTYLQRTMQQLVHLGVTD

As for “Neurogenic locus Notch protein (Drosophila melanogaster (Fruit fly)), P07207 R2027A”, the “effect of a mutation on the interaction” value is reported as “disrupting interaction strength”.
